We go through 1 substance from publication PMC5055751 (Nature chemical biology, 2016).

This data set deals with mouse embryonic fibroblasts (MEFs). The data set can be described thus: Cellular uptake of FITC-peptides by ImageXpress high-content microscopy. As to conditions: MEFs 2×10^4 cells, 0% FBS, dose varied; text 2 hours, legend 4 hr.

Take “BIM BH3_1: unmodified template peptide FITC-BIM BH3_1 (aa 146–166)”: the “TIFI versus FITC-peptide dose, result in words” value is listed as “linear, dose-responsive increase in TIFI”.
